Assays:
Test in all cases: cell-based or functional assay
[1] = target: HIV-1 Env of subtype B isolate MGRM-B-112 (HIV-1)
[2] = target: HIV-1 Env of subtype B isolate MGRM-B-118 (HIV-1)
[3] = target: HIV-1 Env of subtype B isolate MGRM-B-105 (HIV-1)
[4] = target: HIV-1 Env of subtype B isolate MGRM-B-110 (HIV-1)
[5] = target: HIV-1 Env of subtype B isolate MGRM-B-132 (HIV-1)
[6] = target: HIV-1 Env of subtype B isolate MGRM-B-106 (HIV-1)
[7] = target: HIV-1 Env of subtype B isolate MGRM-B-111 (HIV-1)
[8] = target: HIV-1 Env of subtype B isolate MGRM-B-136 (HIV-1)
[9] = target: HIV-1 Env of subtype B isolate MGRM-B-115 (HIV-1)
[10] = target: HIV-1 Env of subtype B virus 15-124987 (HIV-1)
[11] = target: HIV-1 Env of subtype B virus 15-101757 (HIV-1)
[12] = target: HIV-1 Env of subtype B virus 15-124964 (HIV-1)
[13] = target: HIV-1 Env of subtype B virus 15-124970 (HIV-1)
[14] = target: HIV-1 Env of subtype B virus 15-124906 (HIV-1)
[15] = target: HIV-1 Env of subtype B virus 15-101608 (HIV-1)
[16] = target: HIV-1 Env of subtype B virus 15-102514 (HIV-1)
[17] = target: HIV-1 Env of subtype B virus 15-124934 (HIV-1)
[18] = target: HIV-1 Env of subtype B virus 15-124962 (HIV-1)
[19] = target: HIV-1 Env of subtype B virus 15-124904 (HIV-1)
[20] = target: HIV-1 Env of subtype B virus 15-124950 (HIV-1)
[21] = target: HIV-1 Env of subtype B virus 15-124918 (HIV-1)
[22] = target: HIV-1 Env of subtype B virus 15-124963 (HIV-1)
[23] = target: HIV-1 Env of subtype B virus 15-124986 (HIV-1)
[24] = target: HIV-1 Env of subtype B virus 15-124975 (HIV-1)
[25] = target: HIV-1 Env of subtype B virus 15-124914 (HIV-1)
[26] = target: HIV-1 Env of subtype B isolate 92US712 (HIV-1)
[27] = target: HIV-1 Env of subtype B isolate 92US727 (HIV-1)
[28] = target: HIV-1 Env of subtype B isolate 93HT593 (HIV-1)
[29] = target: HIV-1 Env of subtype B isolate 92US657 (HIV-1)
[30] = target: HIV-1 Env of the lab adapted HIV-1 BaL strain (HIV-1)

B1: PGT121.60 hIgG1/hLambda (antibody, V domains shown)
VH: QMQLQESGPGLVKPSETLSLTCSVSGASISDSYWSWIRRSPGKGLEWIGYVHKSGDTNYNPSLKSRVHLSLDTSKNQVSLSLTGVTAADSGKYYCARTLHGRRIYGIVAFNEWFTYFYMDVWGTGTQVTVSS
VL: SDISVAPGETARISCGEKSLGSRAVQWYQHRAGQAPSLIIYNNQDRPSGIPERFSGSPDSRPGTTATLTITSVEAGDEADYYCHIWDSRVPTKWVFGGGTTLTVLG
- Neutralization activity, IC50 [1]: 0.0058 µg/mL
- Neutralization activity, IC50 [2]: 3.31 µg/mL
- Neutralization activity, IC50 [3]: 0.0076 µg/mL
- Neutralization activity, IC50 [4]: 0.0113 µg/mL
- Neutralization activity, IC50 [5]: 0.0077 µg/mL
- Neutralization activity, IC50 [6]: 0.001 µg/mL
- Neutralization activity, IC50 [7]: 0.955 µg/mL
- Neutralization activity, IC50 [8]: 0.0071 µg/mL
- Neutralization activity, IC50 [9]: 0.141 µg/mL
- Neutralization potency, IC50 [10]: 0.0163 µg/mL
- Neutralization potency, IC50 [11]: 0.0132 µg/mL
- Neutralization potency, IC50 [12]: 0.0026 µg/mL
- Neutralization potency, IC50 [13]: 0.0285 µg/mL
- Neutralization potency, IC50 [14]: 0.0103 µg/mL
- Neutralization potency, IC50 [15]: 1.84 µg/mL
- Neutralization potency, IC50 [16]: 0.0128 µg/mL
- Neutralization potency, IC50 [17]: 0.797 µg/mL
- Neutralization potency, IC50 [18]: 0.0277 µg/mL
- Neutralization potency, IC50 [19]: 0.0121 µg/mL
- Neutralization potency, IC50 [20]: 0.0995 µg/mL
- Neutralization potency, IC50 [21]: 0.0018 µg/mL
- Neutralization potency, IC50 [22]: 2.05 µg/mL
- Neutralization potency, IC50 [23]: 0.0015 µg/mL
- Neutralization potency, IC50 [24]: 0.105 µg/mL
- Neutralization potency, IC50 [25]: 0.002 µg/mL
- Neutralization potency, IC50 [26]: 0.008 µg/mL
- Neutralization potency, IC50 [27]: 0.007 µg/mL
- Neutralization potency, IC50 [28]: 0.141 µg/mL
- Neutralization potency, IC50 [29]: 0.062 µg/mL
- Neutralization potency, IC50 [30]: 0.007 µg/mL
